Test results from patent US20220144956A1 (published 2022).

target: Cyno (cynomolgus monkey); experiment: Octet

Kd [nM]	Binder
11.3	XENP37385 – αCD5 (Cd5-A) x αTGFßRII (bispecific antibody) heavy: EVQLKESGAELVRPGGSVKISCKGSGYTFTNFAIHWVKQSHIKTLEWIGLISTSSGDVSYNQKFKDKATMTVDKSSSTAYMELARLTSEDSAIYYCARHYGANNYFDYWGQGTLVTVSSASTKGPSVFPLAPSSKSTSGGTAALGCLVKDYFPEPVTVSWNSGALTSGVHTFPAVLQSSGLYSLSSVVTVPSSSLGTQTYICNVNHKPSDTKVDKKVEPKSCDKTHTCPPCPAPPVAGPSVFLFPPKPKDTLMISRTPEVTCVVVDVKHEDPEVKFNWYVDGVEVHNAKTKPREEEYNSTYRVVSVLTVLHQDWLNGKEYKCKVSNKALPAPIEKTISKAKGQPREPQVYTLPPSREEMTKNQVSLTCDVSGFYPSDIAVEWESDGQPENNYKTTPPVLDSDGSFFLYSKLTVDKSRWEQGDVFSCSVMHEALHNHYTQKSLSLSPGK scFv-Fc: QLQVQESGPGLVKPSETLSLTCTVSGGSISNSYFSWGWIRQPPGKGLEWIGSFYYGEKTYYNPSLKSRATISIDTSKSQFSLKLSSVTAADTAVYYCPRGPTVIRGVIDSWGQGTLVTVSSGKPGSGKPGSGKPGSGKPGSEIVLTQSPATLSLSPGERATLSCRASQSVRSYLAWYQQKPGQAPRLLIYDASNRATGIPARFSGSGSGTDFTLTISSLEPEDFAVYYCQQRSNWPPTFGQGTKVEIKEPKSSDKTHTCPPCPAPPVAGPSVFLFPPKPKDTLMISRTPEVTCVVVDVKHEDPEVKFNWYVDGVEVHNAKTKPREEQYNSTYRVVSVLTVLHQDWLNGKEYKCKVSNKALPAPIEKTISKAKGQPREPQVYTLPPSREQMTKNQVKLTCLVKGFYPSDIAVEWESNGQPENNYKTTPPVLDSDGSFFLYSKLTVDKSRWQQGNVFSCSVMHEALHNHYTQKSLSLSPGK light: EIVLTQSPTIMSASPGEQVTMTCRTNSSVSSSYLHWYQQKSGASPKLWIYGTSNLASGVPTRFSGSGSGTSYSLTISSVEAGDAATYFCQQYSGYPLTFGGGTKVEIKRTVAAPSVFIFPPSDEQLKSGTASVVCLLNNFYPREAKVQWKVDNALQSGNSQESVTEQDSKDSTYSLSSTLTLSKADYEKHKVYACEVTHQGLSSPVTKSFNRGEC
72	XENP35399 – αCD5 (5D7) x αTGFßRII (bispecific antibody) heavy: EVQLVESGGGVVQPGRSLRLSCTFSGFSLSTSGMGVGWIRQAPGKGLEWVAHIWWDDDVYYNPSLKSRLTITKDASTDTVYMELSSLRSEDTAVYYCVRRRATGTGFDYWGQGTLVTVSSASTKGPSVFPLAPSSKSTSGGTAALGCLVKDYFPEPVTVSWNSGALTSGVHTFPAVLQSSGLYSLSSVVTVPSSSLGTQTYICNVNHKPSDTKVDKKVEPKSCDKTHTCPPCPAPPVAGPSVFLFPPKPKDTLMISRTPEVTCVVVDVKHEDPEVKFNWYVDGVEVHNAKTKPREEEYNSTYRVVSVLTVLHQDWLNGKEYKCKVSNKALPAPIEKTISKAKGQPREPQVYTLPPSREEMTKNQVSLTCDVSGFYPSDIAVEWESDGQPENNYKTTPPVLDSDGSFFLYSKLTVDKSRWEQGDVFSCSVMHEALHNHYTQKSLSLSPGK scFv-Fc: QLQVQESGPGLVKPSETLSLTCTVSGGSISNSYFSWGWIRQPPGKGLEWIGSFYYGEKTYYNPSLKSRATISIDTSKSQFSLKLSSVTAADTAVYYCPRGPTVIRGVIDSWGQGTLVTVSSGKPGSGKPGSGKPGSGKPGSEIVLTQSPATLSLSPGERATLSCRASQSVRSYLAWYQQKPGQAPRLLIYDASNRATGIPARFSGSGSGTDFTLTISSLEPEDFAVYYCQQRSNWPPTFGQGTKVEIKEPKSSDKTHTCPPCPAPPVAGPSVFLFPPKPKDTLMISRTPEVTCVVVDVKHEDPEVKFNWYVDGVEVHNAKTKPREEQYNSTYRVVSVLTVLHQDWLNGKEYKCKVSNKALPAPIEKTISKAKGQPREPQVYTLPPSREQMTKNQVKLTCLVKGFYPSDIAVEWESNGQPENNYKTTPPVLDSDGSFFLYSKLTVDKSRWQQGNVFSCSVMHEALHNHYTQKSLSLSPGK light: NIVMTQSPSSLSASVGDRVTITCQASQDVGTAVAWYQQKPDQSPKLLIYWTSTRHTGVPDRFTGSGSGTDFTLTISSLQPEDIATYFCHQYNSYNTFGSGTKLEIKRTVAAPSVFIFPPSDEQLKSGTASVVCLLNNFYPREAKVQWKVDNALQSGNSQESVTEQDSKDSTYSLSSTLTLSKADYEKHKVYACEVTHQGLSSPVTKSFNRGEC
0.74	XENP37388 – αCD5 (Cd5-B) x αTGFßRII (bispecific antibody) heavy: QVTLKESGAELVRPGASVKLSCKASGYSFTSYWMNWVKQRPGQGLEWIGMIHPSDSETRLNQKFKDKATLTVDKSSSTAYMQLSSPTSEDSAVYYCARWGDHDDAMDFWGQGTMVTVSSASTKGPSVFPLAPSSKSTSGGTAALGCLVKDYFPEPVTVSWNSGALTSGVHTFPAVLQSSGLYSLSSVVTVPSSSLGTQTYICNVNHKPSDTKVDKKVEPKSCDKTHTCPPCPAPPVAGPSVFLFPPKPKDTLMISRTPEVTCVVVDVKHEDPEVKFNWYVDGVEVHNAKTKPREEEYNSTYRVVSVLTVLHQDWLNGKEYKCKVSNKALPAPIEKTISKAKGQPREPQVYTLPPSREEMTKNQVSLTCDVSGFYPSDIAVEWESDGQPENNYKTTPPVLDSDGSFFLYSKLTVDKSRWEQGDVFSCSVMHEALHNHYTQKSLSLSPGK scFv-Fc: QLQVQESGPGLVKPSETLSLTCTVSGGSISNSYFSWGWIRQPPGKGLEWIGSFYYGEKTYYNPSLKSRATISIDTSKSQFSLKLSSVTAADTAVYYCPRGPTVIRGVIDSWGQGTLVTVSSGKPGSGKPGSGKPGSGKPGSEIVLTQSPATLSLSPGERATLSCRASQSVRSYLAWYQQKPGQAPRLLIYDASNRATGIPARFSGSGSGTDFTLTISSLEPEDFAVYYCQQRSNWPPTFGQGTKVEIKEPKSSDKTHTCPPCPAPPVAGPSVFLFPPKPKDTLMISRTPEVTCVVVDVKHEDPEVKFNWYVDGVEVHNAKTKPREEQYNSTYRVVSVLTVLHQDWLNGKEYKCKVSNKALPAPIEKTISKAKGQPREPQVYTLPPSREQMTKNQVKLTCLVKGFYPSDIAVEWESNGQPENNYKTTPPVLDSDGSFFLYSKLTVDKSRWQQGNVFSCSVMHEALHNHYTQKSLSLSPGK light: DIVLTQSPASLSASVGESVTITCRPSENIYGYFAWYQQRQGKSPQLLVYNAKTLAEGVPSRFSGSGSGTHFSLKINSLQPEDFGTYYCQHHYGTPFTFGPGTKVDIKRTVAAPSVFIFPPSDEQLKSGTASVVCLLNNFYPREAKVQWKVDNALQSGNSQESVTEQDSKDSTYSLSSTLTLSKADYEKHKVYACEVTHQGLSSPVTKSFNRGEC

target: T1, human TGFßRII (antigen of the Octet experiments) (human, UniProt P37173 23-166); experiment: BLI (Octet)
T1 sequence (P37173 23-166): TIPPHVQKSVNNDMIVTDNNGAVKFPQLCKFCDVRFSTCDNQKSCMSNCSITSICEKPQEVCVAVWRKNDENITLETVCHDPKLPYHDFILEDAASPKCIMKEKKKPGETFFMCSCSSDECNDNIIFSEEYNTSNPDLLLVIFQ

Kd [nM]	Binder
0.374	H1.21 L1 XENP35103 (antibody, V domains shown) VH: QLQVQESGPGLVKPSETLSLTCTVSGGSISNSAFSWGWIRQPPGKGLEWIGSFYYGEKTYYNPSLKSRATISIDTSKSQFSLKLSSVTAADTAVYYCPRGPTMIRGVIDSWGQGTLVTVSS VL: EIVLTQSPATLSLSPGERATLSCRASQSVRSYLAWYQQKPGQAPRLLIYDASNRATGIPARFSGSGSGTDFTLTISSLEPEDFAVYYCQQRSNWPPTFGQGTKVEIK
0.112	H1 L1 XENP34287 (antibody, V domains shown) VH: QLQVQESGPGLVKPSETLSLTCTVSGGSISNSYFSWGWIRQPPGKGLEWIGSFYYGEKTYYNPSLKSRATISIDTSKSQFSLKLSSVTAADTAVYYCPRGPTMIRGVIDSWGQGTLVTVSS VL: EIVLTQSPATLSLSPGERATLSCRASQSVRSYLAWYQQKPGQAPRLLIYDASNRATGIPARFSGSGSGTDFTLTISSLEPEDFAVYYCQQRSNWPPTFGQGTKVEIK
0.352	H1.1 L1 XENP34288 (antibody, V domains shown) VH: QLQVQESGPGLVKPSETLSLTCTVSGGSISNSYFSWGWIRQPPGKGLEWIGSFYYGEKTYYNPSLKSRATISIDTSKSQFSLKLSSVTAADTAVYYCPRGPTVIRGVIDSWGQGTLVTVSS VL: EIVLTQSPATLSLSPGERATLSCRASQSVRSYLAWYQQKPGQAPRLLIYDASNRATGIPARFSGSGSGTDFTLTISSLEPEDFAVYYCQQRSNWPPTFGQGTKVEIK

target: T1, human TGFßRII (antigen of the Octet …); experiment: BLI (Octet); remark: another data set of the same source

Kd [nM]	Binder
0.001	H1 L1.56 XENP34619 (antibody, V domains shown) VH: QLQVQESGPGLVKPSETLSLTCTVSGGSISNSYFSWGWIRQPPGKGLEWIGSFYYGEKTYYNPSLKSRATISIDTSKSQFSLKLSSVTAADTAVYYCPRGPTMIRGVIDSWGQGTLVTVSS VL: EIVLTQSPATLSLSPGERATLSCRASQSVRSYLAWYQQKPGQAPRLLIYDASNRATGIPARFSGSGSGTDFTLTISSLEPEDFAVYYCQQRSNWPLTFGQGTKVEIK
0.888	H1 L1.60 XENP34623 (antibody, V domains shown) VH: QLQVQESGPGLVKPSETLSLTCTVSGGSISNSYFSWGWIRQPPGKGLEWIGSFYYGEKTYYNPSLKSRATISIDTSKSQFSLKLSSVTAADTAVYYCPRGPTMIRGVIDSWGQGTLVTVSS VL: EIVLTQSPATLSLSPGERATLSCRASQSVRSYLAWYQQKPGQAPRLLIYDASNRATGIPARFSGSGSGTDFTLTISSLEPEDFAVYYCQQRSNWPPTFGPGTKVEIK
38	H1 L1.55 XENP34618 (antibody, V domains shown) VH: QLQVQESGPGLVKPSETLSLTCTVSGGSISNSYFSWGWIRQPPGKGLEWIGSFYYGEKTYYNPSLKSRATISIDTSKSQFSLKLSSVTAADTAVYYCPRGPTMIRGVIDSWGQGTLVTVSS VL: EIVLTQSPATLSLSPGERATLSCRASQSVRSYLAWYQQKPGQAPRLLIYDASNRATGIPARFSGSGSGTDFTLTISSLEPEDFAVYYCQQRSNWPITFGQGTKVEIK
